Data taken from patent US8106168B2, “Metalloproteinase binding proteins” (Dyax Corp., priority 2005, dated 2012).
Changes are numbered by the printed parent chain.

B1: M0037-C03: Fab that binds human MMP-14; DNA LV SEQ ID NO: 40, HV SEQ ID NO: 41 (antibody, V domains shown)
VL: QDIQMTQSPSSVSASVGDRVTITCRASQGISSWLAWYQQKPGKAPKLLIYAASSLQSGVPSRFSGSGSGTDFTLTISSLQPEDFATYYCQQANSFPFVTFGQGTKLEIK
VH: EVQLLESGGGLVQPGGSLRLSCAASGFTFSMYLMIWVRQAPGKGLEWVSVISSSGGQTKYADSVKGRFTISRDNSKNTLYLQMNSLRAEDTAVYYCARTDLTGYSAGAFDIWGQGTMVTVSS
modifications: Synthetically generated oligonucleotide
B2: M0035-F02: Fab that binds human MMP-14; DNA LV SEQ ID NO: 28, HV SEQ ID NO: 29 (antibody, V domains shown)
VH: EVQLLESGGGLVQPGGSLRLSCAASGFTFSFYRMEWVRQAPGKGLEWVSSIVPSGGFTRYADSVKGRFTISRDNSKNTLYLQMNSLRAEDTAVYYCARFHVLRYFDWFGNTQDTDAFDIWGQGTLVTVSS
VL: QDIQMTQSPATLSLSPGERATLSCRASQSVSNYLAWYQQKPGQAPRLLIYDASNRATGIPARFSGSGSGTDFTLTISSLEPEDFAVYYCQQRSNWPLTFGGGTKVEIK
modifications: Synthetically generated oligonucleotide
B3: M0036-D02: Fab that binds human MMP-14; DNA LV SEQ ID NO: 30, HV SEQ ID NO: 31 (antibody, V domains shown)
VL: B2 VL with R19K, S29T, S31Y, S53F, S93G, L97R, G101Q
VH: EVQLLESGGGLVQPGGSLRLSCAASGFTFSFYKMTWVRQAPGKGLEWVSGIYPSGGRTVYADSVKGRFTISRDNSKNTLYLQMNSLRAEDTAMYYCARGPHYYDSPGAFDIWGQGTMVTVSS
modifications: Synthetically generated oligonucleotide
B4: M0038-D06: Fab that binds human MMP-14; DNA LV SEQ ID NO: 54, HV SEQ ID NO: 55 (antibody, V domains shown)
VL: B2 VL with N32S, G101Q, K104R, V105L
VH: EVQLLESGGGLVQPGGSLRLSCAASGFTFSWYYMGWVRQAPGKGLEWVSYIGSSGGMTGYADSVKGRFTISRDNSKNTLYLQMNSLRAEDTATYYCAMVGFLPTVDYWGQGTLVTVSS
modifications: Synthetically generated oligonucleotide
B5: M0030-A04: Fab that binds human MMP-14; DNA LV SEQ ID NO: 6, HV SEQ ID NO: 7 (antibody, V domains shown)
VH: EVQLLESGGGLVQPGGSLRLSCAASGFTFSVYEMNWVRQAPGKGLEWVSSIYSSGGRTDYADSVKGRFTISRDNSKNTLYLQMNSLRAEDTAVYYCAREAHYYDSSGPPDYWGQGTLVTVSS
VL: QSELTQPPSASGTPGQRVTISCSGSSSNIGINFVTWYQQLPGTAPKLLIYTNNQRPSGVPDRFSSSKSGASASLAISGLQSEDEAAYYCAAWDDNLNGPVFGGGTKLTVL
modifications: Synthetically generated oligonucleotide
B6: M0037-A08: Fab that binds human MMP-14; DNA LV SEQ ID NO: 36, HV SEQ ID NO: 37 (antibody, V domains shown)
VL: QDIQMTQSPSSVSASVGDRVTITCRASQGVSSYLAWYQQKPGKAPKLLIYGASTLQNGVPSRFSGSGSGTDFTLTISSLQPEDFATYHCQQVHSFPPTFGQGTKVEIK
VH: EVQLLESGGGLVQPGGSLRLSCAASGFTFSHYMMMWVRQAPGKGLEWVSGISSSGGRTGYADSVKGRFTISRDNSKNTLYLQMNSLRAEDTAVYYCASFGNSGSYSWRAFDIWGQGTTVTVSS
modifications: Synthetically generated oligonucleotide
B7: M0036-F02: Fab that binds human MMP-14; DNA LV SEQ ID NO: 32, HV SEQ ID NO: 33 (antibody, V domains shown)
VL: QYELTQPPSLSVSPGQTASITCSGEKLGEKFASWYQRRPGQSPLLIIYQDNKRPSGIPERFSGSNSGNTAALTITGTQAMDDADYYCQAWESTTAVFGGGTKLTVL
VH: EVQLLESGGGLVQPGGSLRLSCAASGFTFSRYTMGWVRQAPGKGLEWVSRIYSSGGNTVYADSVKGRFTISRDNSKNTLYLQMNSLRAEDTATYYCARTRRDGYNPFDYWGQGTLVTVSS
modifications: Synthetically generated oligonucleotide
B8: M0037-H09: Fab that binds human MMP-14; DNA LV SEQ ID NO: 46, HV SEQ ID NO: 47 (antibody, V domains shown)
VL: QDIQMTQSPLSLPVTPGEPASISCRSSQSLLHGNGNNYLDWYLQKPGQSPQLLIYLGSNRASGVPDRFSGSGSGTDFTLKISSVEAEDVGVYYCMQGLQTPHTFGQGTQLEIK
VH: EVQLLESGGGLVQPGGSLRLSCAASGFTFSRYWMDWVRQAPGKGLEWVSSIRSSGGMTGYADSVKGRFTISRDNSKNTLYLQMNSLRAEDTAVYYCARHRTGRGAFDIWGQGTTVTVSS
modifications: Synthetically generated oligonucleotide
B9: M0037-B10: Fab that binds human MMP-14; DNA LV SEQ ID NO: 38, HV SEQ ID NO: 39 (antibody, V domains shown)
VH: EVQLLESGGGLVQPGGSLRLSCAASGFTFSVYYMGWVRQAPGKGLEWVSYIGSSGGWTEYADSVKGRFTISRDNSKNTLYLQMNSLRAEDTAVYYCARDLSAVAGLGGAFDIWGQGTMVTVSS
VL: QDIQMTQSPSSLSASVGDRVAITCRASQSIDTYLNWYQQKPGKAPKLLIYAASKLEDGVPSRFSGSGTGTDFTLTIRSLQPEDFASYFCQQSYSSPGITFGPGTKVEIK
B10: M0038-E05: Fab that binds human MMP-14; DNA LV SEQ ID NO: 56, HV SEQ ID NO: 57 (antibody, V domains shown)
VL: QDIQMTQSPSSVSASVGDRVTITCRASQHISNWLAWYQQKPGEAPKLLISAASSLQSGVPSRFSGSGSGTDFTLTISSLQPEDFATYYCQQSYSTPLTFGGGTKVEIK
VH: EVQLLESGGGLVQPGGSLRLSCAASGFTFSPYHMTWVRQAPGKGLEWVSSISSSGGHTEYADSVKGRFTISRDNSKNTLYLQMNSLRAEDTAVYYCATAWAGFTFNVWGQGTMVTVSS
modifications: Synthetically generated oligonucleotide
B11: M0038-B06: Fab that binds human MMP-14; DNA LV SEQ ID NO: 48, HV SEQ ID NO: 49 (antibody, V domains shown)
VL: QDIQMTQSPSSLSASVGDRVTITCRASQSISSYLNWYQQKPGKAPKLLIYAASSLQSGVPSRFRGSGSGTDFSLTISSLQPEDFATYYCQQTYSGLPTFGGGTVVEIK
VH: EVQLLESGGGLVQPGGSLRLSCAASGFTFSSYVMGWVRQAPGKGLEWVSVISPSGGWTTYADSVKGRFTISRDNSKNTLYLQMNSLRAEDTATYYCASRGVVTNLDYWGQGTLVTVSS
modifications: Synthetically generated oligonucleotide
B12: M0038-C05: Fab that binds human MMP-14; DNA LV SEQ ID NO: 50, HV SEQ ID NO: 51 (antibody, V domains shown)
VL: QDIQMTQSPSSLSASVGDRVTITCRASQSISSYLNWYQQKPGKAPKLLIYAASSLQSGVPSRFSGSGSGTDFTLTISRLEPEDFAVYYCQQYGSSPTFGQGTKVEIK
VH: EVQLLESGGGLVQPGGSLRLSCAASGFTFSSYIMVWVRQAPGKGLEWVSVIYPSGGPTYYADSVKGRFTISRDNSKNTLYLQMNSLRAEDTAVYYCARDPRLERFYFDYWGQGTLVTVSS
modifications: Synthetically generated oligonucleotide

What follows are molecules tested against MMP-14 (Homo sapiens, UniProt P50281) (assay: Selection and phage ELISA screening of anti-MMP-14 Fabs). Settings: Fab from FAB310 phage display library.
Type: binding
Procedure: Strategy I: A 100-fold excess of the FAB310 library (e.g., an amount of the library that should contain 100 copies of each library member) was depleted of streptavidin-binding antibodies by incubating the library with 200 μL of streptavidin beads for 1 hour at room temperature (RT) with rotation. 500 nM of biotinylated MMP-14 was coupled to streptavidin beads by incubation with 100 μL of streptavidin beads. The MMP-14 beads were then incubated with the streptavidin-depleted library for 1 hour at RT with rotation. The beads were then rinsed three times with 2% MTRIS/0.1% Tween, transferred to a fresh tube and washed an additional three times with 2% MTRIS/0.1% Tween, and transferred to a fresh tube and washed a final time with Round 1 TRIS buffer (50 mM TRIS; 50 mM CaCl2; 150 mM NaCl, pH 7.5).
MMP-14 binding antibodies were eluted from the beads by re-suspension in 1 mL 2% MTRIS containing 2.5 μM TIMP-2 and incubation for 1 hour at RT with rotation. The beads were then washed three times with 2% MTRIS/0.1% Tween, transferred to a fresh tube and washed three times with TRIS/0.1% Tween, and transferred to a fresh tube and washed a final time with TRIS. 1 mL output was used for infection of 9 mL TG1 bacteria (grown to OD600=0.5). The beads were further eluted by suspension in 1 mL 100 mM TEA for 10 minutes. The supernatant was neutralized with 500 μl TRIS/HCl pH 7.5. 1 mL of the second elution was used for infection of 9 mL TG1 bacteria (grown to OD600=0.5).
Two additional rounds of selection were carried out under the same conditions as the first round, except that the streptavidin beads were loaded with 100 nM biotinylated MMP-14 and the number of washes were doubled (6 times with 2% MTRIS/0.1% Tween, 6 times with TRIS/0.1% Tween and 2 times with TRIS), and Round 2/3 Tris buffer (50 mM TRIS; 5 mM CaCl2; 150 mM NaCl pH=7.5) was used for incubation and wash.
TIMP-2 was coupled to carboxylic beads, then complexed with a combination of biotinylated MMP-14 (500 nM each). The complexed beads were incubated with a 100 fold excess of FAB310 library that had been previously depleted by incubation with streptavidin beads and carboxylic beads. Elution/washing was carried out as for Strategy I.
Two additional rounds of selection were carried out, essentially as described for Strategy I, except that only 100 nM of each of MMP-14 were used in the bead complexes.
384-well plates were coated with biotinylated BSA (2 μg/ml in 50 mM TRIS; 5 mM CaCl2; 150 mM NaCl, pH 7.5), then washed 3 times with 50 mM TRIS; 5 mM CaCl2; 150 mM NaCl, pH 7.5; 0.1% Tween. Streptavidin was captured on the coated plates by incubation with 10 μg/mL streptavidin in 50 mM TRIS; 5 mM CaCl2; 150 mM NaCl pH 7.5; 0.5% Gelatin, followed by a wash with 50 mM TRIS; 5 mM CaCl2; 150 mM NaCl pH=7.5; 0.1% Tween. On the day the assay was to be performed, biotinylated MMP-14 (1 μg/ml) was captured in 50 mM TRIS; 5 mM CaCl2; 150 mM NaCl, pH 7.5.
95 clones were picked from each of Round 2 and Round 3 of each selection strategy, producing 12 masterplates. ELISA was run on the MiniTrak-5 deck according to SOP.

bind to human MMP-14	Molecule
bind to human MMP-14	B1
bind to human MMP-14	B2
bind to human MMP-14	B3
bind to human MMP-14	B4
bind to human MMP-14	B5
bind to human MMP-14	B6
bind to human MMP-14	B7
bind to human MMP-14	B8
bind to human MMP-14	B9
bind to human MMP-14	B10
bind to human MMP-14	B11
bind to human MMP-14	B12
